Experimental findings from publication PMC3458052, “Single Amino Acid Substitutions in the Chemotactic Sequence of Urokinase Receptor Modulate Cell Migration and Invasion” (PLoS ONE, 2012) are described below.

For this assay, the target named is T1, uPAR carrying the S90P substitution (human, UniProt Q03405 23-305, S90P).
T1 construct: human uPAR, whole cDNA in pcDNA3 with S90P made by site-specific mutagenesis, on 293 cells; also called uPAR^S90P; source: on intact adherent cells and in RIPA lysate
Description: radioligand binding; 10 nM ^125I-Vn with increasing unlabeled Vn on adherent transfected 293 clones (2×10^5 cells/well), 3 hours at 4°C, binding buffer DMEM, 1 mg/ml BSA, 10 mM Hepes pH 7.4; surface-bound label recovered by acid wash pH 3.0; apparent Kd; cells also carry endogenous αvβ5. The conditions noted are these: one partner purified.

T1 sequence (Q03405 23-305 S112P): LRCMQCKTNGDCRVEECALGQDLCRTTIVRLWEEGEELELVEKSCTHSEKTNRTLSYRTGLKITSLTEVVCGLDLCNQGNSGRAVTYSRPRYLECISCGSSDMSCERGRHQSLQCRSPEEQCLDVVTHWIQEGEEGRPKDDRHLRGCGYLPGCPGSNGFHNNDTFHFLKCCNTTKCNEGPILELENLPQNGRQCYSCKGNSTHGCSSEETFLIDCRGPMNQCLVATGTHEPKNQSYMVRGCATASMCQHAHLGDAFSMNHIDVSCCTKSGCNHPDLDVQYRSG

B1: vitronectin (ligand, UniProt P04004 20-478, looked up)
chain: DQESCKGRCTEGFNVDKKCQCDELCSYYQSCCTDYTAECKPQVTRGDVFTMPEDEYTVYDDGEEKNNATVHEQVGGPSLTSDLQAQSKGNPEQTPVLKPEEEAPAPEVGASKPEGIDSRPETLHPGRPQPPAEEELCSGKPFDAFTDLKNGSLFAFRGQYCYELDEKAVRPGYPKLIRDVWGIEGPIDAAFTRINCQGKTYLFKGSQYWRFEDGVLDPDYPRNISDGFDGIPDNVDAALALPAHSYSGRERVYFFKGKQYWEYQFQHQPSQEECEGSSLSAVFEHFAMMQRDSWEDIFELLFWGRTSAGTRQPQFISRDWHGVPGQVDAAMAGRIYISGMAPRPSLAKKQRFRHRNRKGYRSQRGHSRGRNQNSRRPSRATWLSLFSSEESNLGANNYDDYRMDWLVPATCEPIQSVFFFSGDKYYRVNLRTRRVDTVDPPYPRSIAQYWLGCPAPGHL
modifications: ^125I (radio-iodinated with Na^125I using IODO-BEADS) on the tracer; the competitor is unlabeled
notes: vitronectin (Vn), bought from Promega; also called Vn; ^125I-Vn; source: bought: Promega
As usually defined, the IC50 is the midpoint of a concentration-inhibition curve. With B1, the IC50 is around 10 nM.
